Sequences and labels used below:
B1: N-terminal His-tagged recombinant Ad3 fibre knob (His-Ad3K) (domain or fragment)
chain: NSIALKNNTLWTGPKPEANCIIEYGKQNPDSKLTLILVKNGGIVNGYVTLMGASDYVNTLFKNKNVSINVELYFDATGHILPDSSSLKTDLELKYKQTADFSARGFMPSTTAYPFVLPNAGTHNENYIFGQCYYKASDGALFPLEVTVMLNKRLPDSRTSYVMTFLWSLNAGLAPETTQATLITSPFTFSYIREDD
notes: human adenovirus serotype 3 (HAd3) fibre protein, knob, Asn124 to Asp319 of the full-length protein, GenBank ABB17809.1; The printed GenBank entry holds; also called HAd3 fibre knob; trimeric knob; source: E. coli Rosetta(DE3)pLysS, pETDuet-1; purified (His GraviTrap, Superdex 200); also co-expressed with MBP-DSG2 constructs, in lysate; not shown: His6, N-terminal, kept

Data set [1] concerns the molecule itself. The data set can be described thus: SEC-MALS; 50 uL at 1 mg/mL on Superdex 200 Increase 10/300 GL, 150 mM NaCl, 3 mM CaCl2, 10 mM Tris-Cl pH 8.0, 0.5 mL/min; co-expressed and co-purified MBP-free complex, and His-Ad3K alone. (Size exclusion chromatography separates by hydrodynamic size, large species first.)
The target of data set [2] is B1. The description is as above. The following applies: both partners purified.
Data set [3] has as its target B1. As to the kind of experiment: AUC; sedimentation velocity (headed SE-AUC), 42,000 rpm, 20 °C, 3 mM CaCl2, 10 mM Tris pH 8.0, 150 mM NaCl; c(s) by SedFit; co-purified MBP-free complex, and His-Ad3K alone; two concentrations. The following applies: both partners purified.

On to B1, for which the stoichiometry N (as a rule, a count of units in the complex or per binding partner) in data set [1] came out at 3.

B2: DSG2 EC2-3 after MBP removal (digested DSG2 EC2-3, bacterial) (domain or fragment, human, UniProt Q14126 149-386, looked up)
chain: VLDINDNEPVFTQDVFVGSVEELSAAHTLVMKINATDADEPNTLNSKISYRIVSLEPAYPPVFYLNKDTGEIYTTSVTLDREEHSSYTLTVEARDGNGEVTDKPVKQAQVQIRILDVNDNIPVVENKVLEGMVEENQVNVEVTRIKVFDADEIGSDNWLANFTFASGNEGGYFHIETDAQTNEGIVTLIKEVDYEEMKNLDFSVIVANKAAFHKSIRSKYKPTPIPIKVKVKNVKEGI
notes: Theoretical mass 27.8 kDa after TEV cleavage; not glycosylated (bacterial); also called MBP-free EC2-3; source: E. coli Rosetta(DE3)pLysS, co-expressed with His-Ad3K; co-purified (His GraviTrap), TEV-cleaved, second His GraviTrap, Superdex 200; not shown: MBP, N-terminal, cleaved
For the molecule B2, the “stoichiometry N” value in data set [2] was 1 DSG2 EC2-3 per His-Ad3K trimer; in data set [3] it was 1 receptor per trimeric knob.

The values are drawn from PMC5976663, “Mapping of Adenovirus of serotype 3 fibre interaction to desmoglein 2 revealed a novel ‘non-classical’ mechanism of viral receptor engagement” (Scientific Reports, 2018).
